# Measured values reported in PMC10454913, “Neurohypophysial and paracrine vasopressinergic signaling regulates aquaporin trafficking to hydrate marine teleost oocytes” (Frontiers in Endocrinology, 2023).
# Bridge positions count the residues as written; N and C are the ends. Ends that are not written are not given here.
# Columns and labels:
# [1] = test system: seabream postvitellogenic ovarian explants; assay: Avp production by ovarian explants in vitro (Avp ELISA); assay type: cell-based, gilthead seabream (Sparus aurata)
# Description: These observations would be compatible with a role of Avp regulating the intracellular trafficking of Aqp1ab1 and Aqp1ab2 in maturing oocytes, as observed in surrogate amphibian oocytes. […] To test this hypothesis, we carried out in vitro experiments in which the production of Avp by postvitellogenic ovarian explants in response to piscine single-chain recombinant […] evaluated by a custom made Avp enzyme-linked immunosorbent assay (ELISA) ( Supplementary Figure S3 ). To investigate the specificity of the rLh potential regulation, in these experiments we also tested the effect of single-chain recombinant follicle-stimulating hormone (rFsh). […] Pieces of the ovary at the […] stage (400-500 mg) were dissected from naturally spawning seabream females and placed in Petri dishes containing 75% Leivovitz L-15 culture medium with L-glutamine and 100 μg/ml gentamicin at pH 7.5. […] Control groups were treated with an equivalent volume of the cell culture medium used for […] production, or with 0.5% ethanol. After incubation, explants were frozen and stored at -80°C until Avp extraction and determination by ELISA. To determine the Avp levels in ovarian explants incubated in vitro, a competitive ELISA was developed using the specific anti-Avp antiserum and the synthetic Avp to create the standard curve ( Supplementary Figure S3 ). For this, polystyrene ELISA microtiter plates (F96 Maxisorp Nunc Immuno Plates; […] Ovarian explants were homogenized on ice with a glass dounce tissue homogenizer in water containing 0.25% glacial acetic acid in a proportion of 500 μl/100 mg tissue. After incubation of the homogenate at 100°C for 5 min, the samples were centrifuged a 10,000 × g for 5 min at 4°C, and the supernatant recovered in a new tube. […] Absorbance was read at 450 nm with a VICTOR3TM Multilabel Plate Reader (PerkinElmer, Inc.). […] The intra-assay coefficient of variation was 4.64% (calculated by assaying eight replicates of an ovarian sample at 50% of maximum binding on the same plate), whereas the inter-assay coefficient of variation was 8.35%.
# seabream Oxtrb = seabream Oxtrb (Sparus aurata, UniProt R9WVY7); assay: Activation of seabream Oxtrb in transfected HEK293T cells (pCRE-luc / pSRE-luc reporters, Fluo-4 AM Ca2+); assay type: cell-based, gilthead seabream (Sparus aurata)
# [2] = test system: X. laevis oocytes expressing the seabream Oxtrb and Aqp1aa; conditions: not told
# [3] = biological target: seabream arginine vasopressin receptor Avpr1aa (gilthead seabream (Sparus aurata))
# [4] = biological target: seabream arginine vasopressin receptor Avpr1aa (gilthead seabream (Sparus aurata)); remark: listed apart in the source
# [5] = biological target: seabream oxytocin receptor Oxtrb (gilthead seabream (Sparus aurata))
molecule,measurement,setting,value
CC#C[C@]1(O)CC[C@H]2[C@@H]3CCC4=CC(=O)CCC4=C3[C@@H](c3ccc(N(C)C)cc3)C[C@@]21C [RU486],"17,20β-P-induced increase in Avp synthesis","[1]; 100 µM inhibitor with 0.1 µg/ml 17,20β-P",completely abolished
"C=C[C@]12CCC(=O)C=C1CC[C@H]1[C@@H]3CC[C@H](C(C)=O)[C@@]3(C)CC[C@@H]12 [OD 02-0, 10-ethenyl-19-norprogesterone]","Avp synthesis in ovarian explants in the absence of 17,20β-P","[1]; 10 µM, ~20 h",not reproduced
CYISNCPIG-NH2 (ends and bridges not checked) [Oxt],pCRE-mediated luciferase activity (cAMP),seabream Oxtrb; HEK293T cells expressing Oxtrb,did not induce measurable increases
same,pSRE-induced luciferase activity (PKC activation),"seabream Oxtrb; HEK293T cells expressing Oxtrb, 10^-12 to 10^-5 M",concentration-dependent increase
same,intracellular Ca2+ concentration ([Ca2+]i),"seabream Oxtrb; HEK293T cells expressing Oxtrb, Fluo-4 AM",concentration-dependent increase
same,EC50,"seabream Oxtrb; Oxt on Oxtrb, HEK293T, read-out: approximate EC50 on cognate receptor",~10 nM
same,oocyte permeability (P f) and channel accumulation in the plasma membrane,[2],reduction of oocyte permeability
"C[C@@H](O)[C@@]1(O)CC[C@H]2[C@@H]3CCC4=CC(=O)CC[C@]4(C)[C@H]3CC[C@@]21C [17,20β-P, 17α,20β-dihydroxypregn-4-en-3-one]",increase in Avp synthesis in ovarian explants,"[1]; 0.1 µg/ml, ~20 h",3 fold
"CYIQNCPRG-NH2 (disulfide 1-6; ends not checked) [arginine vasopressin (Avp, formerly vasotocin), synthetic nonapeptide]","EC50 of PKC (pSRE-luciferase) activation and [Ca2+]i increase in HEK293T cells, Avp on Avpr1aa against Oxt on Oxtrb",[3]; scale: fold,10
same,"EC50 of receptor activation (pSRE-luciferase activity and [Ca2+]i) in HEK293T cells expressing Avpr1aa, Avp 10^-12 to 10^-5 M",[4],1e-08 M
"CYISNCPIG-NH2 (disulfide 1-6; ends not checked) [oxytocin (Oxt, formerly isotocin), synthetic nonapeptide]","EC50 of cross-activation of Avpr1aa by Oxt in HEK293T cells (Figure 4D), against that of Avp (fold (EC50 of Oxt over EC50 of Avp))",[3],10
same,"EC50 of receptor activation (pSRE-luciferase activity and [Ca2+]i) in HEK293T cells expressing Oxtrb, Oxt 10^-12 to 10^-5 M",[5],1e-08 M
